# Test results taken from the nanobody polyreactivity screen of Harvey et al. (2022).
# Experiment: yeast display, Sf9 membrane polyspecificity reagent, FACS + sequencing; frameworks hold sequencing errors
# Summary of the method: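 In a synthetic yeast display library (Saccharomyces cerevisiae BJ5465), nanobody expression was induced with galactose for 36–48 hours. FACS gates were set low and high (top ~1%) using anti-HA fluorescence for expression and streptavidin fluorescence for binding of the Sf9 membrane reagent. Each polyreactivity label is drawn from the gate of origin.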
row,Sequence,polyreactivity (PSR sort gate)
1,QVQLVESGGCLVQAGGSLRLMCAASGSTFRVNAMGWSRQAPGKERELVAAITRGGSTNYADSVKGRFTISRDNAKNTVYLQMNSLKPEDTAVYYCNAGDDFGRYVPFSWGRFDYWGQGTQVTESS,low polyreactivity
2,QVQLVESGGCLVQAGGSLRLSCAASGFIFCGNARGGYIPAPGKERELVAVITRSGGSTYADSVKGRFTISRDNAKNTVYLQMNSLKPEVTAVYYCAADQQTWWQYSLINEYDYWGQGTQVTVSS,low polyreactivity
3,QVQLVESGGCLVQAGGSLRLSCAASGFIFDPYVMGWYIQAPGKERELVAAITYNGGRTYYADSVKGRFTISRDNAKNTVYLQMNSLKPEDTAVYYCNKDYRIGQTWYDYWGQVTQVTVSS,low polyreactivity
4,QVQLVESGGCLVQAGGSLRLSCAASGFIFSGYVMGWYRQAPGKERELVARIDGGGTTNYADSVKGRFTISRDNAKNTVYLQMNSLKPADTAVYYCNARFGEGFDYWGQGTQVTVSS,low polyreactivity
5,QVQLVESGGCLVQAGGSLRLSCAASGFIFSSYAMGWYRQAPGKERELVAAISVSGGSTNYADSVKGRFTISRDNAKNTVFLQMNSLKPEDTAVYYCAARVRDSLVYGGWDDYWGQGTQVTVSS,high polyreactivity
6,QVQLVESGGCLVQAGGSLRLSCAASGFTFIRYAMGWYRQAPGKERELVAAITVSGTRTYYADSVKGRFTISRDNAKNTVYLQMNSLKPEDTAVYYCNARDVYTGYGMGYWGQGSQVTVSS,high polyreactivity
7,QVQLVESGGCLVQAGGSLRLSCAASGFTFRWYTMGWYRQAPGKERELVAAITGSGCTTYYADSVKGRFTISRDYAKNSVYLQMNSLKPVDTAVYYCAVVTGSFRTRYTYYYLGQGTQVTVSS,high polyreactivity
8,QVQLVESGGCLVQAGGSLRLSCAASGFTFRYYAMGWYRQAPGKEREFVAAIRSSGTTTSYADSVKGRFRISRDYAKNTVYLQMNSLKPEDTAVYFCAAGYFGPQQYYYWCQGTQVTVSS,high polyreactivity
9,QVQLVESGGCLVQAGGSLRLSCAASGFTFSRYNMGWYRQAPGKESELVATISWSGSRTYYADSVKGRFTISRDNAKNTVYLQINSLKPDDTAFYYCNFAPHRQVFYTGQYDYWGQGTQVTVSS,high polyreactivity
10,QVQLVESGGCLVQAGGSLRLSCAASGFTFWRNVMGWYRQAPGKERELVAVISRGGSTNYADSVKGRFTISRDNAMNTVYLQMNSLKPEDTAVYYCAKYARGPSKVDYWGQGTQVTVSS,high polyreactivity
11,QVQLVESGGCLVQAGGSLRLSCAASGGTFHRYAMGGYRQAPGKERELVAAISGSGASTYYADSVKGRFTISRDNAKNTVYLQMNSLKPEDTAVYYCNAYSYPYWYRYYYWGQGTQVTVSS,high polyreactivity
12,QVQLVESGGCLVQAGGSLRLSCAASGGTFSRNAMGWYRQAPGKERELVAAINSSGVSTSYAYSVKGRFTISRDNEKNTVYLQMNSLKPEDTAFYYCAAETSSAEVDYWGQGTQVTVSS,low polyreactivity
13,QVQLVESGGCLVQAGGSLRLSCAASGITFRYYAMGWYRQAPGKERELVATISYSGGTTYYAESVKGRFTISRDNAKNTVYLQMNSLKPEDTAVYYCKAVYRYKYGYRDYDYWGQGSQVTVSS,high polyreactivity
14,QVQLVESGGCLVQAGGSLRLSCAASGITFVSNVMGWYRQATGKEREFVAAITGRGDTTYADSVKGRFTISRDNAKNTVYLQMNSLKPEDTAVYYCAAEYSVPYRGWDGYEYWGQGTQVTVSS,low polyreactivity
15,QVQLVESGGCLVQAGGSLRLSCAASGLTFGSYGMGWYRQAPGKERELVAAITATGGSTYYADSVKGRFTISRDNAKNTVYLQMNSLKPEDTAVYYCAATRRSKVWLYGYWGQGTQVTVSS,high polyreactivity
16,QVQLVESGGCLVQAGGSLRLSCAASGLTFNKNAMGWYRQAPGKEREFVAAITRRGGSTYYADSVKGRFTISRDNAKNTVYLQMNSLKPEDTAVYYCAVYPASVNPYHYDYWGQGTQVTVSS,high polyreactivity
17,QVQLVESGGCLVQAGGSLRLSCAASGNIIVGNDMGWYRQAPGKERELGAAISSGDTTSYADSVKGRFTISRDNAKNTVFLQMISLKPEDTAVYYCAAGFTYPYDYWGQGTQVTVSS,low polyreactivity
18,QVQLVESGGCLVQAGGSLRLSCAASGRIFDRNAMGWYRQAPGKERELVARIDPGDDTNYADSVKGRFTISRDNAKNTVYLQMNSLKPEDTAVYYCATDPDYVLYRTAYYEYDYWGQGTQVTVSS,low polyreactivity
19,QVQLVESGGCLVQAGGSLRLSCAASGRIFFLYAMGWYRQAPGKERELVAAITWSADGTYYADSVKGRFTISRDNAKNTVYLQMNSLKPEDTAVYYCNADAYTTASSYNWWYYYWGQGTQVTVSS,low polyreactivity
20,QVQLVESGGCLVQAGGSLRLSCAASGRIFTTNAMGWYRQAPGKERELVAAITYSGGTTYYADSVKGRFTISRDNAKKTVYLQMNSLKPEDTAVYYCAADVKFSTPYDYWGQGTQVTVSS,low polyreactivity

row,Sequence,polyreactivity (PSR sort gate)
1,QVQLVESGGCLVQAGGSLRLSCAASGRTFIGYAMGWYRQAPGKERELVAAISSTGGSTYYADSVKGRFTISRDNAKNTVYLQMNSLKPEDTAVYYCATDAARPPRTPDISDVSNFDYWGQGTQVTVSS,low polyreactivity
2,QVQLVESGGCLVQAGGSLRLSCAASGRTFRGYAMGWYRQAPGKERELVARISVSGGSTYYADSVKGRFTISRDNAKNTVYLQMNSLTPDDTAVYYCNARPYTYWRSQYDYWGQGTQVTVSS,high polyreactivity
3,QVQLVESGGCLVQAGGSLRLSCAASGRTLYRNAMGWYRPAPGKERELVARITWSGASTYYADSVKGRFTISRDNAKNTVYLQMNSLKPEDTAVYYCAAQYLSRRYGPYYTYNYWGQGTQVTVSS,high polyreactivity
4,QVQLVESGGCLVQAGGSLRLSCAASGRTYVVNAMGWYRHAPGKESELVAAITTGGSTYYADSVKGRFTISRENAKYTVYLQMNSLKPEDTAVYYCAADIYLYYIFDYWVDYDYWGQCTQVTVSS,high polyreactivity
5,QVQLVESGGCLVQAGGSLRLSCAASGSIFDRYAMGWYRQAPGKERGLVAAISSSGGSTYYADSVKGRFTISRDNAKNTVYLQMNSLKPEDTAVYYCAAEYYASPYYWSYDYWGQGTQVTVSS,high polyreactivity
6,QVQLVESGGCLVQAGGSLRLSCAASGSIFIYYAMGWYRQAPGKERELVATISVRGGSTYYADSVKGRFTISRDNAKNTVYLQMNSLKPEDTAVYYCNAVTSGTTKSAYDYWGQGTQVTVSS,high polyreactivity
7,QVQLVESGGCLVQAGGSLRLSCAASGSIFTKYTMGWYRQAPGRERELVAAITLRGTSTYYADSVKGRFTISRDIAKNTVYLQMNSLKPEDTAVYYCNKLYSWVVAYDYWGQGTQVTVSS,high polyreactivity
8,QVQLVESGGCLVQAGGSLRLSCAASGSIFTRYAMGWYRQAPGKERELVADIRWGGGDTYYADSVKGRFTISRDNAKNTVYLQMNSLKPEDTAVYYCNADFGAPNTGRPEVQNSDEFGYWGQGTQVTVSS,low polyreactivity
9,QVQLVESGGCLVQAGGSLRLSCAASGSIFWSYSMGWYRQAPGKERELVAAISSGGSTNYADSVKGRFTISRDNAKNTVYLQMNSLKPEDTAVYYCSARFYTTSVRRKRYDYWGQGTQVTVSS,high polyreactivity
10,QVQLVESGGCLVQAGGSLRLSCAASGSIFYYYAMGWYRQAPGKERELVADISISGGSTYYADSVKGRFTISRDNAKNTVYLQMNSLKPEDTAVYYCAATDYLWEPTVSNWGYTFDSWGQGTQVTVSS,low polyreactivity
11,QVQLVESGGCLVQAGGSLRLSCAASGSISTNYAMGWYRQAPGKERELVAAISDSSGSTYYADSVKGRFTISRDNAKNTVYLQMNSLKPVDTAVYYCNADSQGGRDVHYDYEYYYWGQGTQVTVSS,low polyreactivity
12,QVQLVESGGCLVQAGGSLRLSCAASGSSFSRYTMGWYSQAPGKERELVAVISDSSGRTYYADSVKGRFTISRDTAKNTVYLQMNSLKPEDTAVYYCAAEYSDIYEYCGQGTQVTVSS,low polyreactivity
13,QVQLVESGGCLVQAGGSLRLSCAASGSTFDGNAMGWYRQAPGKERELVATINSGSSTTYADSVKGRFTISRDNAKNTVYLQMNSLKPEDTAVYYCNVDSGSDSLVYSVRYNYWGQGTQVTVSS,low polyreactivity
14,QVQLVESGGCLVQAGGSLRLSCAASGSTFIDYAMGWYRQAPGKERELVAAITNGGNTKYADSVKGRFTISRDNAKNTVYLQMNSLKPEDTAVYYCAREPSIFTPSYDYWGQGTQVTVSS,low polyreactivity
15,QVQLVESGGCLVQAGGSLRLSCAASGSTFLINAMGWYRQAPGKEREFVASIRYRGATTYADSVKGRFTISRDNAKNTVYLQMNTLKPEDTAVYYCAASIWLRYHWGYDYWGQGTQVTVSS,high polyreactivity
16,QVQLVESGGCLVQAGGSLRLSCAASGSTFPRYAMGWYRQAPGKERELVATINSGGSTYYADSVKGCFTISRDNAKNTVYLQMNSLKPEDTAVYYCAAGYRWTYTSGTYIRYNYWGQGTQVTVSS,high polyreactivity
17,QVQLVESGGCLVQAGGSLRLSCAASGSTFSPYAMGWYRQAPGKERELVAGITGRGGRTYYADSVKGRFTISRDNAKNTVYLQMNSLKPEDTAVYYCAAKYYGNKRDLYYWGQGTQVTVSS,low polyreactivity
18,QVQLVESGGCLVQAGGSLRLSCAASGSTFVHNAMGWYRQAPGKERELVAAISESGGGTYYADSVKGRFTISRDNAKNTVYLQMNSLKPEDTAVYYCAAPPAGENWRDGGGYWGQGTQVTVSS,low polyreactivity
19,QVQLVESGGCLVQAGGSLRLSCAASGYTFSLNAMGWYRQAPGKERELVAAISYSGGSTYYADSVKGRFTISRDNAKNTVYLQMNSLKPEDTAVYYCAVRRPQYSYYWDFDYWGQGTQLTVSS,high polyreactivity
20,QVQLVESGGCLVQAGGSLRLSCAATGFIFYPDAKGWYRQAPGTEMELVAVITSGGRTYYADSVKGRFTITRDNAKNTVYLQMNSLKPEDTAVYYCAALYLGLWPTDIFDYWGQGTQVTVSS,low polyreactivity
